Patent publication US11427805B2, “Methods of producing human foregut endoderm cells expressing PDX1 from human definitive endoderm” (ViaCyte, Inc., priority 2005, dated 2022)

How the values were obtained:
Format in all cases: cell-based, human
[1] = test system: AFP gene expression; experiment: Q-PCR of AFP gene expression in differentiating hESCs
Method: (§1) In the following experiments, real-time quantitative RT-PCR (Q-PCR) was the primary assay used for screening the effects of various treatments on hESC differentiation. In particular, real-time measurements of gene expression were analyzed for multiple marker genes at multiple time points by Q-PCR. Marker genes characteristic of the desired as well as undesired cell types were evaluated to gain a better understanding of the overall dynamics of the cellular populations. The strength of Q-PCR analysis includes its extreme sensitivity and relative ease of developing the necessary markers, as the genome sequence is readily available. Furthermore, the extremely high sensitivity of Q-PCR permits detection of gene expression from a relatively small number of cells within a much larger population. In addition, the ability to detect very low levels of gene expression provides indications for “differentiation bias” within the population. The bias towards a particular differentiation pathway, prior to the overt differentiation of those cellular phenotypes, is unrecognizable using immunocytochemical techniques. […] Additionally, Q-PCR provides a mechanism by which to evaluate the success of a differentiation protocol in a quantitative format at semi-high throughput scales of analysis.
To generate PCR template, total RNA was isolated using RNeasy (Qiagen) and quantitated using RiboGreen (Molecular Probes). Reverse transcription from 350-500 ng of total RNA was carried out using the iScript reverse transcriptase kit (BioRad), which contains a mix of oligo-dT and random primers. […] Fluorescence data was collected during the last 15 seconds of each extension phase. A three point, 10-fold dilution series was used to generate the standard curve for each run and cycle thresholds (Ct's) were converted to quantitative values based on this standard curve. The quantitated values for each sample were normalized to housekeeping gene performance and then average and standard deviations were calculated for triplicate samples. […]

[2] = test system: hESCs; experiment: Antibody labeling (immunocytochemistry) of differentiating hESCs for SOX17 and AFP
Text: However, AFP and SOX7 are not expressed in definitive endoderm cells at levels detectable by ICC, and thus, they can be employed as negative markers for bonifide definitive endoderm cells. It was shown that SOX17 antibody labels populations of cells that exist as discrete groupings of cells or are intermingled with AFP positive cells. […] Similarly, since parietal endoderm has been reported to express SOX17, antibody co-labeling with SOX17 together with the parietal markers SPARC and/or Thrombomodulin (TM) can be used to identify the SOX17^+ cells that are parietal endoderm. As shown in FIGS. 6A-C, Thrombomodulin and SOX17 co-labeled parietal endoderm cells were produced by random differentiation of hES cells.
With the SOX17 antibody and Q-PCR tools described above we have explored a number of procedures capable of efficiently programming hESCs to become SOX17^hi/AFP^lo/SPARC/TM^lo definitive endoderm cells. We applied a variety of differentiation protocols aimed at increasing the number and proliferative capacity of these cells as measured at the population level by Q-PCR for SOX17 gene expression and at the level of individual cells by antibody labeling of SOX17 protein.
To determine the effect of TGFβ factor treatment at the individual cell level, a time course of TGFβ factor addition was examined using SOX17 antibody labeling. […]

[3] = test system: SOX17 gene expression; experiment: Q-PCR of SOX17 gene expression in differentiating hESCs
Method: as §1
The approach taken here was to perform relative quantitation using SYBR Green chemistry on a Rotor Gene 3000 instrument (Corbett Research) and a two-step RT-PCR format. Such an approach allowed for the banking of cDNA samples for analysis of additional marker genes in the future, thus avoiding variability in the reverse transcription efficiency between samples.
To generate PCR template, total RNA was isolated using RNeasy (Qiagen) and quantitated using RiboGreen (Molecular Probes). Reverse transcription from 350-500 ng of total RNA was carried out using the iScript reverse transcriptase kit (BioRad), which contains a mix of oligo-dT and random primers. Each 20 μL reaction was subsequently diluted up to 100 μL total volume and 3 μL was used in each 10 μL Q-PCR reaction containing 400 nM forward and reverse primers and 5 μL 2×SYBR Green master mix (Qiagen). Two step cycling parameters were used employing a 5 second denature at 85-94° C. (specifically selected according to the melting temp of the amplicon for each primer set) followed by a 45 second anneal/extend at 60° C. Fluorescence data was collected during the last 15 seconds of each extension phase. A three point, 10-fold dilution series was used to generate the standard curve for each run and cycle thresholds (Ct's) were converted to quantitative values based on this standard curve. The quantitated values for each sample were normalized to housekeeping gene performance and then average and standard deviations were calculated for triplicate samples. At the conclusion of PCR cycling, a melt curve analysis was performed to ascertain the specificity of the reaction. A single specific product was indicated by a single peak at the Tm appropriate for that PCR amplicon.
A first step in establishing the Q-PCR methodology was validation of appropriate housekeeping genes (HGs) in the experimental system. […] We measured the expression levels of Cyclophilin G, hypoxanthine phosphoribosyltransferase 1 (HPRT), beta-2-microglobulin, hydroxymethylbiane synthase (HMBS), TATA-binding protein (TBP), and glucoronidase beta (GUS) in differentiating hESCs. […] We routinely used both Cyclophilin G and GUS to calculate a normalization factor for all samples. The use of multiple HGs simultaneously reduces the variability inherent to the normalization process and increases the reliability of the relative gene expression values.
We were the first to analyze and describe the effect of TGFβ family growth factors, such as Nodal/activin/BMP, for use in creating definitive endoderm cells from embryonic stem cells in in vitro cell cultures. […]

[4] = test system: hESCs; experiment: CXCR4+ cell number by flow cytometry; details: 0, 10, or 100 ng/ml, 7 days (FIGS. 30A-C)
Method: hESCs were differentiated in RPMI media supplemented with 0.5%-2% FBS (increased from 0.5% to 1.0% to 2.0% over the first 3 days of differentiation) and either 0, 10, or 100 ng/ml of activin A. After 7 days of differentiation the cells were dissociated in PBS without Ca^2+/Mg^2+ containing 2% FBS and 2 mM (EDTA) for 5 minutes at room temperature. The cells were filtered through 35 μm nylon filters, counted and pelleted. Pellets were resuspended in a small volume of 50% human serum/50% normal donkey serum and incubated for 2 minutes on ice to block non-specific antibody binding sites. To this, 1 μl of mouse anti-CXCR4 antibody (Abcam, cat # ab10403-100) was added per 50 μl (containing approximately 10^5 cells) and labeling proceeded for 45 minutes on ice. Cells were washed by adding 5 ml of PBS containing 2% human serum (buffer) and pelleted. A second wash with 5 ml of buffer was completed then cells were resuspended in 50 μl buffer per 10^5 cells. […] Cells were resuspended at 5×10^6 cells/ml in buffer and analyzed and sorted using a FACS Vantage (Beckton Dickenson) by the staff at the flow cytometry core facility (The Scripps Research Institute). Cells were collected directly into RLT lysis buffer (Qiagen) for subsequent isolation of total RNA for gene expression analysis by real-time quantitative PCR.

B1: activin A (protein, UniProt P08476 311-426, looked up)
Inhibin beta A chain: GLECDGKVNICCKKQFFVSFKDIGWNDWIIAPSGYHANYCEGECPSHIAGTSGSSLSFHSTVINHYRMRGHSPFANLKSCCVPTKLRPMSMLYYDDGQNIIKKDIQNMIVEECGCS
modifications: Inhibin beta A chain
[1]; FIG. 8A
  suppression of AFP gene expression in comparison to no treatment: 6.8 fold
[1]; FIG. 8A legend
  difference in AFP gene expression levels, activin A vs random differentiation in 10% FBS: approximately 7 fold
[1]; activin A dose series (FIG. 13A)
  expression of the visceral endoderm marker AFP: dose-dependent decrease
[2]; FIG. 22
  dose dependence of SOX17+ cell number: dose-dependent increase
[2]; hESCs treated with activin A vs retinoic acid (FIG. 7B)
  difference in SOX17 antibody-labeled cell number: 10 fold
[3]; 0, 10, 30 or 100 ng/ml (FIG. 11)
  dose dependence of SOX17 gene expression: dose-dependently increases SOX17 gene expression
[3]; 4-day time point
  SOX17 induction compared to no factor medium controls: 5 fold
[3]; FIG. 7A
  SOX17 gene expression relative to the undifferentiated control media (SR20): increases SOX17 gene expression
[3]; day 4 of differentiation / four days of exposure, activin A at 100 ng/ml, 10% serum medium (FIGS. 19, 21)
  induction of SOX17 gene expression vs. undifferentiated hESCs: 19 fold
[3]; hESCs treated with activin A vs retinoic acid (FIG. 7A)
  difference in the level of SOX17 mRNA expression: 10 fold
[4]
  number of CXCR4+ cells as determined by flow cytometry: increase dramatically
